Test results as given in patent US20250152742A1, “COMPOSITIONS AND METHODS FOR NEUROLOGICAL DISEASES” (Trames Bio, Inc., priority 2022, published 2025).

System: engineered chimeric receptor SEQ ID NO: 33 and its mutants (human α7-nAChR ligand binding domain / human GlyRα1 ion pore domain) in Lenti-X 293T cells
Assay: YFP fluorescence quenching anion reporter plate reader assay (percent quench, EC50)
Type: cell-based
Settings: for YFP fluorescence quenching using CNL001 (percent quench): receptor named in row; for YFP fluorescence quenching using Varenicline, 3 nM var: ligand Varenicline 3 nM; for YFP fluorescence quenching using Varenicline, 30 nM var: ligand Varenicline 30 nM; for YFP fluorescence quenching using Varenicline, 300 nM var: ligand Varenicline 300 nM; for YFP fluorescence quenching using Varenicline, 500 nM var: ligand Varenicline 500 nM; for YFP fluorescence quenching using Varenicline, 1 uM var: ligand Varenicline 1 uM
In short: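 Lenti-X 293T cells co-expressing an anion-quenchable YFP were transiently transfected with receptor DNA, then ligand was added in NaI-substituted buffer (pH 7.2) after 30 min at 37 °C. Fluorescence was read about 2 min; percent quench = mean of last 10 s over 15 s pre-ligand baseline.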

[1] = 1 nM CNL001, first column so headed
[2] = 1 nM CNL001, second column so headed
[3] = 1 nM brd (TC-5619/Bradanicline)
[4] = 3 nM brd (TC-5619/Bradanicline)
[5] = 10 nM CNL001, first column so headed
[6] = 10 nM CNL001, second column so headed
[7] = 10 nM brd (TC-5619/Bradanicline)
[8] = 30 nM brd (TC-5619/Bradanicline)
[9] = 50 nM CNL001, first column so headed
[10] = 50 nM CNL001, second column so headed
[11] = 100 nM CNL001, first column so headed
[12] = 100 nM CNL001, second column so headed
[13] = 300 nM brd (TC-5619/Bradanicline)
[14] = 1 uM CNL001, first column so headed
[15] = 1 uM CNL001, second column so headed

B1: CODA1039: engineered receptor: Y115E, Y210W in SEQ ID NO: 33 (protein)
chain: MRCSPGGVWLALAASLLHVSLQGEFQRKLYKELVKNYNPLERPVANDSQPLTVYFSLSLLQIMDVDEKNQVLTTNIWLQMSWTDHYLQWNVSEYPGVKTVRFPDGQIWKPDILLENSADERFDATFHTNVLVNSSGHCQYLPPGIFKSSCPMDLKNFPMDVQTCKLKFGSWSYGGWSLDLQMQEADISGYIPNGEWDLVGIPGKRSERFWECCKEPYPDVTFTVTMRRRMGYYLIQMYIPSLLIVILSWISFWINMDAAPARVGLGITTVLTMTTQSSGSRASLPKVSYVKAIDIWMAVCLLFVFSALLEYAAVNFVSRQHKELLRFRRKRRHHKSPMLNLFQEDEAGEGRFNFSAYGMGPACLQAKDGISVKGANNSNTTNPPPAPSKSPEEMRKLFIQRAKKIDKISRIGFPMAFLIFNMFYWIIYKIVRREDVHNQ
modifications: synthetic sequence of chimeric LGIC
YFP fluorescence quenching using CNL001 (percent quench) [1]: −1.12% | YFP fluorescence quenching using CNL001 (percent quench) [2]: −3.941% | YFP fluorescence quenching using TC-5619/Bradanicline (percent quench) [3]: −5.55% | YFP fluorescence quenching using TC-5619/Bradanicline (percent quench) [4]: 6.78% | YFP fluorescence quenching using CNL001 (percent quench) [5]: 6.275% | YFP fluorescence quenching using CNL001 (percent quench) [6]: 11.943% | YFP fluorescence quenching using TC-5619/Bradanicline (percent quench) [7]: −2.7% | YFP fluorescence quenching using TC-6683 (percent quench) (30 nM TC-6683): −1.608% | YFP fluorescence quenching using TC-5619/Bradanicline (percent quench) [8]: 34.43% | YFP fluorescence quenching using CNL001 (percent quench) [9]: 12.949% | YFP fluorescence quenching using CNL001 (percent quench) [10]: 18.635% | YFP fluorescence quenching using ABT-126 (percent quench) (50 nM abt (ABT-126)): −17.32% | YFP fluorescence quenching using CNL001 (percent quench) [11]: 17.576% | YFP fluorescence quenching using CNL001 (percent quench) [12]: 18.319% | YFP fluorescence quenching (percent quench) (100 nM CNL002): 21.85% | YFP fluorescence quenching using ABT-126 (percent quench) (100 nM abt (ABT-126)): −13.93% | YFP fluorescence quenching using AZD-0328 (percent quench) (100 nM azd0328): −10.45% | YFP fluorescence quenching using TC-6683 (percent quench) (300 nM TC-6683): −3.491% | YFP fluorescence quenching using ABT-126 (percent quench) (300 nM abt (ABT-126)): 9.9% | YFP fluorescence quenching using AZD-0328 (percent quench) (300 nM azd0328): −13% | YFP fluorescence quenching using TC-5619/Bradanicline (percent quench) [13]: 70.05% | YFP fluorescence quenching using ABT-126 (percent quench) (500 nM abt (ABT-126)): 36.97% | YFP fluorescence quenching using CNL001 (percent quench) [14]: 19.329% | YFP fluorescence quenching using CNL001 (percent quench) [15]: 20.672% | YFP fluorescence quenching (percent quench) (1 uM CNL002): 47.37% | YFP fluorescence quenching using ABT-126 (percent quench) (1 uM abt (ABT-126)): 48.37% | YFP fluorescence quenching using TC-6683 (percent quench) (3 uM TC-6683): −6.153% | YFP fluorescence quenching using ABT-126 (percent quench) (3 uM abt (ABT-126)): 50.5% | YFP fluorescence quenching using ABT-126 (percent quench) (10 uM abt (ABT-126)): 58.13% | YFP fluorescence quenching (percent quench) (10 uM ach (acetylcholine)): −2.97% | YFP fluorescence quenching (percent quench) (30 uM CNL002): 59.97% | YFP fluorescence quenching using TC-6683 (percent quench) (30 uM TC-6683): −9.263% | YFP fluorescence quenching using ABT-126 (percent quench) (30 uM abt (ABT-126)): 64.1% | YFP fluorescence quenching using AZD-0328 (percent quench) (30 uM azd0328): 30.76% | YFP fluorescence quenching using ABT-126 (percent quench) (50 uM abt (ABT-126)): 66.67% | YFP fluorescence quenching (percent quench) (50 uM ach (acetylcholine)): −3.94% | YFP fluorescence quenching using TC-6683 (percent quench) (100 uM TC-6683): −9.19% | YFP fluorescence quenching using ABT-126 (percent quench) (100 uM abt (ABT-126)): 68.63% | YFP fluorescence quenching (percent quench) (100 uM ach (acetylcholine)): 0.35% | YFP fluorescence quenching (percent quench) (300 uM ach (acetylcholine)): −4.13% | YFP fluorescence quenching (percent quench) (500 uM ach (acetylcholine)): −5.18% | YFP fluorescence quenching (percent quench) (1 mM ach (acetylcholine)): 1.21% | YFP fluorescence quenching (percent quench) (3 mM ach (acetylcholine)): 26.69% | YFP fluorescence quenching using Facinicline, 30 nM fac (ligand Facinicline 30 nM): −13.46 | YFP fluorescence quenching using Facinicline, 300 nM fac (ligand Facinicline 300 nM): 5.43 | YFP fluorescence quenching using Facinicline, 30 uM fac (ligand Facinicline 30 uM): 49.06 | YFP fluorescence quenching using TC-6987, 1 uM tc6987 (ligand TC-6987 1 uM): 7.26 | YFP fluorescence quenching using TC-6987, 10 uM tc6987 (ligand TC-6987 10 uM): 11 | YFP fluorescence quenching using TC-6987, 500 uM tc6987 (ligand TC-6987 500 uM): 7.97 | YFP fluorescence quenching using Varenicline, 3 nM var (first column): −10.926 | YFP fluorescence quenching using Varenicline, 3 nM var (second column): −7.395 | YFP fluorescence quenching using Varenicline, 30 nM var (first column): −5.661 | YFP fluorescence quenching using Varenicline, 30 nM var (second column): −1.244 | YFP fluorescence quenching using Varenicline, 300 nM var (first column): −4.555 | YFP fluorescence quenching using Varenicline, 300 nM var (second column): 1.081 | YFP fluorescence quenching using Varenicline, 500 nM var (first column): 9.172 | YFP fluorescence quenching using Varenicline, 500 nM var (second column): 12.561 | YFP fluorescence quenching using Varenicline, 1 uM var (first column): 7.139 | YFP fluorescence quenching using Varenicline, 1 uM var (second column): 12.664

B2: CODA1045: engineered receptor: R101W, Y210V in SEQ ID NO: 33 (protein)
chain: MRCSPGGVWLALAASLLHVSLQGEFQRKLYKELVKNYNPLERPVANDSQPLTVYFSLSLLQIMDVDEKNQVLTTNIWLQMSWTDHYLQWNVSEYPGVKTVWFPDGQIWKPDILLYNSADERFDATFHTNVLVNSSGHCQYLPPGIFKSSCPMDLKNFPMDVQTCKLKFGSWSYGGWSLDLQMQEADISGYIPNGEWDLVGIPGKRSERFVECCKEPYPDVTFTVTMRRRMGYYLIQMYIPSLLIVILSWISFWINMDAAPARVGLGITTVLTMTTQSSGSRASLPKVSYVKAIDIWMAVCLLFVFSALLEYAAVNFVSRQHKELLRFRRKRRHHKSPMLNLFQEDEAGEGRFNFSAYGMGPACLQAKDGISVKGANNSNTTNPPPAPSKSPEEMRKLFIQRAKKIDKISRIGFPMAFLIFNMFYWIIYKIVRREDVHNQ
modifications: synthetic sequence of chimeric LGIC
YFP fluorescence quenching using CNL001 (percent quench) [1]: 0.804% | YFP fluorescence quenching using CNL001 (percent quench) [2]: 11.275% | YFP fluorescence quenching using TC-5619/Bradanicline (percent quench) [3]: −1.431% | YFP fluorescence quenching using TC-5619/Bradanicline (percent quench) [4]: −14.993% | YFP fluorescence quenching using CNL001 (percent quench) [5]: 15.843% | YFP fluorescence quenching using CNL001 (percent quench) [6]: 16.619% | YFP fluorescence quenching using TC-5619/Bradanicline (percent quench) [7]: −5.52% | YFP fluorescence quenching using TC-6683 (percent quench) (30 nM TC-6683): 1.735% | YFP fluorescence quenching using TC-5619/Bradanicline (percent quench) [8]: 15.49% | YFP fluorescence quenching using CNL001 (percent quench) [9]: 15.205% | YFP fluorescence quenching using CNL001 (percent quench) [10]: 18.771% | YFP fluorescence quenching using ABT-126 (percent quench) (50 nM abt (ABT-126)): −24.16% | YFP fluorescence quenching using CNL001 (percent quench) [11]: 9.332% | YFP fluorescence quenching using CNL001 (percent quench) [12]: 18.218% | YFP fluorescence quenching using ABT-126 (percent quench) (100 nM abt (ABT-126)): −24.7% | YFP fluorescence quenching using TC-5619/Bradanicline (percent quench) (100 nM brd (TC-5619/Bradanicline)): 72.105% | YFP fluorescence quenching using TC-6683 (percent quench) (300 nM TC-6683): 0.642% | YFP fluorescence quenching using ABT-126 (percent quench) (300 nM abt (ABT-126)): −16.09% | YFP fluorescence quenching using TC-5619/Bradanicline (percent quench) [13]: 71.411% | YFP fluorescence quenching using CNL001 (percent quench) [14]: 35.294% | YFP fluorescence quenching using CNL001 (percent quench) [15]: 36.542% | YFP fluorescence quenching using ABT-126 (percent quench) (1 uM abt (ABT-126)): −11.61% | YFP fluorescence quenching using TC-6683 (percent quench) (3 uM TC-6683): 2.403% | YFP fluorescence quenching (percent quench) (10 uM ach (acetylcholine)): −2.52% | YFP fluorescence quenching using TC-6683 (percent quench) (30 uM TC-6683): 6.006% | YFP fluorescence quenching using TC-6683 (percent quench) (100 uM TC-6683): −4.277% | YFP fluorescence quenching (percent quench) (100 uM ach (acetylcholine)): −11.98% | YFP fluorescence quenching (percent quench) (300 uM ach (acetylcholine)): −16.71% | YFP fluorescence quenching (percent quench) (500 uM ach (acetylcholine)): −12.87% | YFP fluorescence quenching (percent quench) (1 mM ach (acetylcholine)): −14.41% | YFP fluorescence quenching (percent quench) (3 mM ach (acetylcholine)): −7.4% | YFP fluorescence quenching (percent quench) (10 mM ach (acetylcholine)): −1.5% | YFP fluorescence quenching using Varenicline, 3 nM var (first column): 6.745 | YFP fluorescence quenching using Varenicline, 3 nM var (second column): 8.397 | YFP fluorescence quenching using Varenicline, 30 nM var (first column): 14.1 | YFP fluorescence quenching using Varenicline, 30 nM var (second column): 19.095 | YFP fluorescence quenching using Varenicline, 300 nM var (first column): 16.83 | YFP fluorescence quenching using Varenicline, 300 nM var (second column): 21.507 | YFP fluorescence quenching using Varenicline, 500 nM var (first column): 21.586 | YFP fluorescence quenching using Varenicline, 500 nM var (second column): 23.131 | YFP fluorescence quenching using Varenicline, 1 uM var (first column): 31.591 | YFP fluorescence quenching using Varenicline, 1 uM var (second column): 26.479
